Literature values, collected in article doi:10.1101/2021.10.04.463074.

Target: Asp85 (UniProt position 98, WARYADWLFTT)
Conditions: resting (ground) state of bR, protonated Schiff base, all-trans retinal

Bacteriorhodopsin (bR) (Halobacterium salinarum (named Halobacterium halobium only in titles of cited references))
pKa: 2 to 3
